Patent US20210238265A1 (Biogen, published 2021)

Molecular target: T1, His-tagged Tau domain IV (AA 355-441 of hTau40) (human, UniProt O02828 317-403 (Capra hircus entry))
T1 construct: Expressed in E. coli BL21 (DE3) and purified on Ni-NTA; not shown: N-terminal 6xHis tag from pRSET-A vector
Test: Western blot of His-tagged tau domains and hTau40
Experimental: DNA fragments, synthesized using GeneArt® (Invitrogen), which encode each Tau domain with 6×His tagged at the N-terminus were cloned into the pRSET-A expression vector (Invitrogen), were transfected into E. coli BL21 (DE3) (New England Biolabs). The expressions of the His-tagged Tau domains were induced by 0.5 mM IPTG for six hours before bacteria were lysed with lysozyme with sonication. The lysate was boiled for five minutes before being further purified with Ni-NTA Superflow Columns (Qiagen). The eluted His-tagged Tau domains were coated on ELISA plates or loaded on polyacrylamide gel for Western Blot. These sequentially overlapping tau domain polypeptides cover the full length of hTau40 (FIG. 13A).

T1 sequence (O02828 317-403): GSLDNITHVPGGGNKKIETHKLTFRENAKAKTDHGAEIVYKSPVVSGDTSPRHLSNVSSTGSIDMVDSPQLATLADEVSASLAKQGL

B1: Recombinant human antibody NI-105.4A3 (antibody, V domains shown)
VH: QVQLVESGGGAVQPGGSLRLSCAASGFTFSDYAMHWVRQAPGKGLQWVAVISYEGTYKYYADSVKGRFTISRDNSKNTLNLQMSSLRVEDTAVYFCVKARAFASGQRSTSTVPDYWGQGTLVTVSS
VL: SYELTQPPSVSVSPGQTARITCSGDALPKKYAYWYQQKSGQAPVLVIYEDNKRPSGIPERFSGSSSGTVATLTISGAQVDDEADYYCYSTDISGDLRVFGGGTKLTVL
Question: Does B1 bind?
Answer: no binding
